Measured values from patent US6861257B1, “Methods for isolation of osteoclast precursor cells and inducing their differentiation into osteoclasts” (Shionogi & Co., Ltd., priority 1998, dated 2005).
Entries after “also recorded” stand apart in the source; their conditions may differ.

B1: M-CSF: recombinant human M-CSF (R & D Systems) (protein, UniProt P09603 33-554, looked up)
Macrophage colony-stimulating …: EEVSEYCSHMIGSGHLQSLQRLIDSQMETSCQITFEFVDQEQLKDPVCYLKKAFLLVQDIMEDTMRFRDNTPNAIAIVQLQELSLRLKSCFTKDYEEHDKACVRTFYETPLQLLEKVKNVFNETKNLLDKDWNIFSKNCNNSFAECSSQDVVTKPDCNCLYPKAIPSSDPASVSPHQPLAPSMAPVAGLTWEDSEGTEGSSLLPGEQPLHTVDPGSAKQRPPRSTCQSFEPPETPVVKDSTIGGSPQPRPSVGAFNPGMEDILDSAMGTNWVPEEASGEASEIPVPQGTELSPSRPGGGSMQTEPARPSNFLSASSPLPASAKGQQPADVTGTALPRVGPVRPTGQDWNHTPQKTDHPSALLRDPPEPGSPRISSLRPQGLSNPSTLSAQPQLSRSHSSGSVLPLGELEGRRSTRDRRSPAEPEGGPASEGAARPLPRFNSVPLTDTGHERQSEGSFSPQLQESVFHLLVPSVILVLLAVGGLLFYRWRRRSHQEPQRADSPLEQPEGSPLTQDDRQVELPV
B2: IL-11: recombinant human IL-11 (R & D Systems) (protein, UniProt P20809 22-199, looked up)
Interleukin-11: PGPPPGPPRVSPDPRAELDSTVLLTRSLLADTRQLAAQLRDKFPADGDHNLDSLPTLAMSAGALGALQLPGVLTRLRADLLSYLRHVQWLRRAGGSSLKTLEPELGTLQARLDRLLRRLQLLMSRLALPQPPPDPPAPPLAPPSSAWGGIRAAHAILGGLHLTLDWAVRGLLLLKTRL
B3: eotaxin-3: human CC type chemokine, amino acid sequence SEQ ID No.:2; recombinant protein from baculovirus-infected insect cells (protein, listed as Homo sapiens)
chain: MMGLSLASAVLLASLLSLHLGTATRGSDISKTCCFQYSHKPLPWTWVRSYEFTSNSCSQRAVIFTTKRGKKVCTHPRKKWVQKYISLLKTPKQL
B4: eotaxin-2: recombinant human eotaxin-2 (R & D Systems) (protein, UniProt O00175 27-119, looked up)
C-C motif chemokine 24: VVIPSPCCMFFVSKRIPENRVVSYQLSSRSTCLKAGVIFTTKKGQQFCGDPKQEWVQRYMKNLDAKQKKASPRARAVAVKGPVQRYPGNQTTC
B5: IL-7: recombinant human IL-7 (Genzyme) (protein, UniProt P13232 26-177, looked up)
Interleukin-7: DCDIEGKDGKQYESVLMVSIDQLLDSMKEIGSNCLNNEFNFFKRHICDANKEGMFLFRAARKLRQFLKMNSTGDFDLHLLKVSEGTTILLNCTGQVKGRKPAALGEAQPTKSLEENKSLKEQKKLNDLCFLKRLLQEIKTCWNKILMGTKEH
B6: IL-4: recombinant human IL-4 (Genzyme) (protein, UniProt P05112 25-153, looked up)
Interleukin-4: HKCDITLQEIIKTLNSLTEQKTLCTELTVTDIFAASKNTTEKETFCRAATVLRQFYSHHEKDTRCLGATAQQFHRHKQLIRFLKRLDRNLWGLAGLNSCPVKEANQSTLENFLERLKTIMREKYSKCSS

Assays:
preosteoclasts [1] = assay: Induction of differentiation of preosteoclasts (from joint fluid of rheumatoid arthritis patients) into osteoclasts in the absence of accessory cells; type: cell-based; conditions: cytokine in place of human T-STIM in the medium, 37° C., 48-96 hours, no accessory cells
Method: The obtained cellular fraction was cultured in DMEM medium (Gibco BRL, #12430-21 or equivalent) supplemented with 10% (v/v) of fetal calf serum (FCS) in 5-7% CO2-containing air at 37° C. for several weeks. […]
Human T-STIM contains a variety of cytokines. In order to identify the cytokine which stimulates differentiation of preosteoclasts into osteoclasts, the differentiation was examined by modifycation the contents of Medium A described as previously in Example 1(3).
The following 16 kinds of medium (B-R) were prepared by using the cytokines shown below, alone or a mixture thereof, instead of human T-STIM contained in Medium A (Example 1(3)). […] Recombinant baculovirus containing the sequence was prepared to infect insect cells, then the recombinant eotaxin-3 protein was purified from the culture supernatant.)
The preosteoclasts obtained by Example 1(2) were cultured in the Medium […] described above at 37° C. for 48-96 hours.

preosteoclasts [2] = conditions: differentiation requiring the presence of accessory cells; cited from earlier work

Row | Molecule | ability for inducing the differentiation of preosteoclasts (preosteoclasts [1]) | induction of the differentiation of preosteoclasts into osteoclasts (preosteoclasts [2])
1 | GM-CSF: recombinant human GM-CSF (R & D Systems) | have an ability for inducing the differentiation of preosteoclasts | 
2 | IL-6: recombinant human IL-6 (R & D Systems) | do not have an ability for inducing the differentiation of preosteoclasts; also recorded: does not effect to the differentiation | induce the differentiation of preosteoclasts into osteoclasts
3 | eotaxin: recombinant human eotaxin (R & D Systems) | have an ability for inducing the differentiation of preosteoclasts | 
4 | B1 | do not have an ability for inducing the differentiation of preosteoclasts; also recorded: does not effect to the differentiation | induce the differentiation of preosteoclasts into osteoclasts
5 | B2 | do not have an ability for inducing the differentiation of preosteoclasts; also recorded: does not effect to the differentiation | induce the differentiation of preosteoclasts into osteoclasts
6 | B3 | have an ability for inducing the differentiation of preosteoclasts | 
7 | B4 | have an ability for inducing the differentiation of preosteoclasts | 
8 | B5 | have an ability for inducing the differentiation of preosteoclasts | 
9 | B6 | do not have an ability for inducing the differentiation of preosteoclasts | 
